According to the supplement of paper PMC12067230:
± gives the uncertainty stated by the source.

B1: A-16-E; numbered along this chain (parent)
chain: EASNCFAIRHFENKFAVETLICFNLFLNSQEKHY

Variants of: B1
Assay: amyloid nucleation score relative to WT ADan (yeast Sup35 reporter selection) (log enrichment difference); higher = more amyloid nucleation
Method: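 Deep mutational scan of the ADan peptide fused to the Sup35 nucleation domain (SupN) in S. cerevisiae [psi-pin-], covering all single amino-acid substitutions and stop truncations (truncations = sequence up to the stop). After 24 h Cu2+ induction, cells were selected on -ADE-URA plates for 7 d at 30 °C. The nucleation score is log enrichment (output/input, deep sequencing) minus that of WT ADan, as the error-weighted mean of 3 biological replicates (DiMSum).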

Q: For EASNCFAIRHFENKFEVETLICFNLFLNSQEKHY, which amyloid nucleation score is on record?
A: 1.02 ± 0.13

Q: With EASNCFAIRHFENKFDVETLICFNLFLNSQEKHY as the variant, how does the amyloid nucleation score read?
A: 0.736 ± 0.15

Q: With EASNCFAIRHFENKFLVETLICFNLFLNSQEKHY as the variant, how does the amyloid nucleation score read?
A: -0.774 ± 0.099

Q: With EASNCFAIRHFENKFHVETLICFNLFLNSQEKHY as the variant, how does the amyloid nucleation score read?
A: 0.76 ± 0.31

Q: For EASNCFAIRHFENKFAVEKLICFNLFLNSQEKHY, which amyloid nucleation score is on record?
A: 0.347 ± 0.17

Q: For EASNCFAIRHFENKFAVEHLICFNLFLNSQEKHY, which amyloid nucleation score is on record?
A: -0.0921 ± 0.27

Q: With EASCCFAIRHFENKFAVETLICFNLFLNSQEKHY as the variant, how does the amyloid nucleation score read?
A: -2.58 ± 0.3

Q: For EASLCFAIRHFENKFAVETLICFNLFLNSQEKHY, which amyloid nucleation score is on record?
A: -4.8 ± 0.57

Q: Which amyloid nucleation score does the source give for EASQCFAIRHFENKFAVETLICFNLFLNSQEKHY here?
A: -0.267 ± 0.22

Q: With EASPCFAIRHFENKFAVETLICFNLFLNSQEKHY as the variant, how does the amyloid nucleation score read?
A: -0.352 ± 0.18

Q: For EASNCFAIRHFENKFAVETLICFNLFLNSEEKHY, which amyloid nucleation score is on record?
A: 0.219 ± 0.11

Q: Which amyloid nucleation score does the source give for EASNCFAIRHFENKFAVETLICFNLFLNSNEKHY here?
A: -0.383 ± 0.14

Q: Which amyloid nucleation score does the source give for EASNCFAIRHFENKFAVETLICFNLFLNSHEKHY here?
A: -0.33 ± 0.15

Q: With EASNCFAIRHFENKFAVETLICFNLFLNSMEKHY as the variant, how does the amyloid nucleation score read?
A: -0.23 ± 0.12

Q: For EASNCFANRHFENKFAVETLICFNLFLNSQEKHY, which amyloid nucleation score is on record?
A: 0.497 ± 0.15

Q: Which amyloid nucleation score does the source give for EASNCFATRHFENKFAVETLICFNLFLNSQEKHY here?
A: 0.634 ± 0.14

Q: With EASNCFAHRHFENKFAVETLICFNLFLNSQEKHY as the variant, how does the amyloid nucleation score read?
A: 0.873 ± 0.21

Q: Which amyloid nucleation score does the source give for EASNCFAPRHFENKFAVETLICFNLFLNSQEKHY here?
A: 0.188 ± 0.15

Q: For EASNCFAWRHFENKFAVETLICFNLFLNSQEKHY, which amyloid nucleation score is on record?
A: 0.464 ± 0.14

Q: Which amyloid nucleation score does the source give for EASNCFADRHFENKFAVETLICFNLFLNSQEKHY here?
A: 0.678 ± 0.15

Q: With EASNCFAIRHFENKFAVETLICFNLFYNSQEKHY as the variant, how does the amyloid nucleation score read?
A: 0.163 ± 0.13

Q: Which amyloid nucleation score does the source give for EASNCFAIRHFENKFAVETLICFNLFWNSQEKHY here?
A: 0.0695 ± 0.11

Q: Which amyloid nucleation score does the source give for EASNCFAIRHFENKFAVETLICFNLFRNSQEKHY here?
A: -1.01 ± 0.091

Q: For EASNCFAIRHFENKFAVETLICFNLFINSQEKHY, which amyloid nucleation score is on record?
A: 0.00956 ± 0.13

Q: For EASNCFAIRHFENKFAVETLICFNLFVNSQEKHY, which amyloid nucleation score is on record?
A: 0.187 ± 0.079

Q: Which amyloid nucleation score does the source give for EASNCFAIRHFENKFAVETLICFNLFTNSQEKHY here?
A: 0.731 ± 0.12

Q: With EASNCFAIRHFENKFAVETLICFNLCLNSQEKHY as the variant, how does the amyloid nucleation score read?
A: 0.2 ± 0.14

Q: With EASNCFAIRHFENKFAVETLICFNLNLNSQEKHY as the variant, how does the amyloid nucleation score read?
A: 0.113 ± 0.17

Q: For EASNCFAIRHFENKFAVETLICFNLRLNSQEKHY, which amyloid nucleation score is on record?
A: -2.51 ± 0.17

Q: Which amyloid nucleation score does the source give for EASNCFAIRHFENKFAVETLICFNLELNSQEKHY here?
A: 0.392 ± 0.16

Q: For EASNCFAIRHFENKFAVETLICFNLWLNSQEKHY, which amyloid nucleation score is on record?
A: 0.102 ± 0.14

Q: Which amyloid nucleation score does the source give for EASNCFAIRHFENKFAVETLICFNLYLNSQEKHY here?
A: -0.164 ± 0.13

Q: Which amyloid nucleation score does the source give for EASNCFAIRHFENKFAVETLICFNLFLNHQEKHY here?
A: -0.577 ± 0.18

Q: With EASNCFAIRHFENKFAVETLICFNLFLNGQEKHY as the variant, how does the amyloid nucleation score read?
A: -0.16 ± 0.079

Q: Which amyloid nucleation score does the source give for EASNCFAIRHFENKFAVETLICFNLFLNRQEKHY here?
A: -1.08 ± 0.082

Q: With EASNCFAIRHFENKFAVETLICFNLFLNKQEKHY as the variant, how does the amyloid nucleation score read?
A: 0.205 ± 0.13

Q: With EASNCFAIRHFENKFAVETLICFNLFLNEQEKHY as the variant, how does the amyloid nucleation score read?
A: 0.219 ± 0.14

Q: With EASNCFAIRHFENKFAVETLICFNLFLNLQEKHY as the variant, how does the amyloid nucleation score read?
A: -0.878 ± 0.081

Q: With EASNCAAIRHFENKFAVETLICFNLFLNSQEKHY as the variant, how does the amyloid nucleation score read?
A: 0.0803 ± 0.13

Q: With EASNCRAIRHFENKFAVETLICFNLFLNSQEKHY as the variant, how does the amyloid nucleation score read?
A: 0.678 ± 0.1

Q: Which amyloid nucleation score does the source give for EASNCEAIRHFENKFAVETLICFNLFLNSQEKHY here?
A: 0.683 ± 0.15

Q: For EASNCPAIRHFENKFAVETLICFNLFLNSQEKHY, which amyloid nucleation score is on record?
A: 0.53 ± 0.16

Q: With EASNCLAIRHFENKFAVETLICFNLFLNSQEKHY as the variant, how does the amyloid nucleation score read?
A: -0.5 ± 0.11

Q: For EASNCCAIRHFENKFAVETLICFNLFLNSQEKHY, which amyloid nucleation score is on record?
A: 0.408 ± 0.14

Q: For EASNCFAIRHFEFKFAVETLICFNLFLNSQEKHY, which amyloid nucleation score is on record?
A: -0.221 ± 0.11

Q: With EASNCFAIRHFEYKFAVETLICFNLFLNSQEKHY as the variant, how does the amyloid nucleation score read?
A: -1.67 ± 0.15

Q: With EASNCFAIRHFECKFAVETLICFNLFLNSQEKHY as the variant, how does the amyloid nucleation score read?
A: -0.187 ± 0.12

Q: For EASNCFAIRHFEQKFAVETLICFNLFLNSQEKHY, which amyloid nucleation score is on record?
A: 0.539 ± 0.16

Q: For EASNCFAIRHFELKFAVETLICFNLFLNSQEKHY, which amyloid nucleation score is on record?
A: -0.652 ± 0.086

Q: For EASNSFAIRHFENKFAVETLICFNLFLNSQEKHY, which amyloid nucleation score is on record?
A: 0.0127 ± 0.12

Q: Which amyloid nucleation score does the source give for EASNTFAIRHFENKFAVETLICFNLFLNSQEKHY here?
A: -0.0743 ± 0.15

Q: With EASNEFAIRHFENKFAVETLICFNLFLNSQEKHY as the variant, how does the amyloid nucleation score read?
A: 0.484 ± 0.21

Q: With EASNMFAIRHFENKFAVETLICFNLFLNSQEKHY as the variant, how does the amyloid nucleation score read?
A: 0.796 ± 0.19

Q: For EASNNFAIRHFENKFAVETLICFNLFLNSQEKHY, which amyloid nucleation score is on record?
A: 0.0664 ± 0.2

Q: Which amyloid nucleation score does the source give for EASNCFAIRHFENKMAVETLICFNLFLNSQEKHY here?
A: 0.405 ± 0.14

Q: For EASNCFAIRHFENKIAVETLICFNLFLNSQEKHY, which amyloid nucleation score is on record?
A: 0.203 ± 0.13

Q: Which amyloid nucleation score does the source give for EASNCFAIRHFENKEAVETLICFNLFLNSQEKHY here?
A: -2.18 ± 0.19

Q: Which amyloid nucleation score does the source give for EASNCFAIRHFENKGAVETLICFNLFLNSQEKHY here?
A: 0.818 ± 0.089

Q: For EASNCFAIRHFENKVAVETLICFNLFLNSQEKHY, which amyloid nucleation score is on record?
A: 0.0927 ± 0.095

Q: Which amyloid nucleation score does the source give for EASNCFAITHFENKFAVETLICFNLFLNSQEKHY here?
A: 0.386 ± 0.17

Q: With EASNCFAIRHFENKFAVETLICFNLFLNSQEKHL as the variant, how does the amyloid nucleation score read?
A: -0.0163 ± 0.1

Q: For EASNCFAIRHFENKFAVETLICFNLFLNSQEKHA, which amyloid nucleation score is on record?
A: -0.0498 ± 0.12

Q: With EASNCFAIRHFENKFAVETLICFNLFLNSQEKHM as the variant, how does the amyloid nucleation score read?
A: 0.0777 ± 0.15

Q: Which amyloid nucleation score does the source give for EASNCFAIRHFENKFAVETLICFNLFLNSQEKHD here?
A: 0.321 ± 0.13

Q: Which amyloid nucleation score does the source give for EASNCFAIRHFENKFAVETLICFNLFLNSQEKHG here?
A: 0.194 ± 0.098

Q: Which amyloid nucleation score does the source give for EASNCFSIRHFENKFAVETLICFNLFLNSQEKHY here?
A: 0.0708 ± 0.089

Q: With EASNCFCIRHFENKFAVETLICFNLFLNSQEKHY as the variant, how does the amyloid nucleation score read?
A: 0.601 ± 0.12

Q: Which amyloid nucleation score does the source give for EASNCFRIRHFENKFAVETLICFNLFLNSQEKHY here?
A: 0.12 ± 0.086

Q: Which amyloid nucleation score does the source give for EASNCFMIRHFENKFAVETLICFNLFLNSQEKHY here?
A: -0.0811 ± 0.16

Q: With EASNCFHIRHFENKFAVETLICFNLFLNSQEKHY as the variant, how does the amyloid nucleation score read?
A: 0.394 ± 0.15

Q: For EASNCFPIRHFENKFAVETLICFNLFLNSQEKHY, which amyloid nucleation score is on record?
A: 0.577 ± 0.12
